The subject of this data set is MS2 coat protein. The experiment in a line: apparent KD of MS2 coat protein; designed switch direction (-1 OFF switch, 1 ON switch): -1; higher = weaker reporter binding. In outline: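 RNA switches sharing common flanks were transcribed by stalled E. coli RNA polymerase on Illumina chips. A doubling series of SNAP-549-labelled MS2 coat protein, from 0.7 or 1.5 nM to 3 µM, was applied in Tris-HCl pH 7.5 buffer with KCl, MgCl2, BSA, DTT, tRNA and Tween-20. Each step lasted 0.8–1.5 h at the bottom of the series and 10–20 min at the top. Normalised cluster fluorescence was curve-fitted, giving apparent KD as the per-design median over clusters.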

[1] abbreviates: input ligand: microRNA oligo, concentration not stated.
[2] abbreviates: Eterna round: R95, input ligand: FMN 200 uM.
Setting [3] is: Eterna round: R95, input ligand: microRNA oligo, concentration not stated.
[4] abbreviates: Eterna round: R95, input ligand: none.

For “AUAUUUAAUAUAGGAUAUAGGAAGAAUGAUGAACUAGAAGGAUAACAUACAUGAGGAUCACCCAUGUCCCAUGUGAUCACCCAU [Seems to work in some way] (Eterna round: R96, puzzle: Exclusion NG 1)”, the “apparent KD of MS2 coat protein” value under setting [1] was determined as 257 nM.
With “AAAACACAUGAGGAUCACCCAUGUGAGGAUAUGUUGAUUUUGAUCAAAGUUAAGAUUAACAGAAGGCACAUAAA [JR_Exclusion1_Sub018] (puzzle: Exclusion 1)”, the “apparent KD of MS2 coat protein” value reads like this: under setting [2], 34.5 nM; under setting [3], 36.1 nM; under setting [4], 35.2 nM.
As to “AAUAUACAUGUAGGAUAUCUGCACGUUUAGUGCAGAGAAGGACAUGAGGAUCACCCAUGUAAUUAAGAUCAAUUAUUAAAUAUU [ENG1/3-B2] (Eterna round: R96, puzzle: Exclusion NG 1)”, the “apparent KD of MS2 coat protein” value is 437 nM (input ligand: FMN 200 uM), 39.6 nM under setting [1] and 63 nM (input ligand: none).
In the case of “ACUUAUAGAGGAUAUACAGAAUAUUACAUGAGGAUCACCCAUGUUCUUCAAUGUAUAUAAGUAGAAGGCUAAGGAU [Mat - Exclusion 5 - JL Mod - D4] (Eterna round: R97, puzzle: Exclusion 5)”, the “apparent KD of MS2 coat protein” value by setting is: (input ligand: FMN 200 uM) 183 nM; (input ligand: none) 25.4 nM.
For “GCUGCGCGAGGAUAUGCGGUUUGCGCUGUGGCCCGUGGCGUACAUGAGGAUCACCCAUGUAGAAGGCGUGUGGG [Apr-15 SS2-55] (Eterna round: R96, puzzle: Exclusion 2)”, the “apparent KD of MS2 coat protein” value runs as follows: (input ligand: FMN 200 uM) 27.6 nM; under setting [1], 21.3 nM; (input ligand: none) 30.1 nM.
With “GAAAGAGUUCAGGAUAUCAGAGUCCAGCGACACUGAGAAGGGAAAACAUGAGGAUCACCCAUGUGGUCCUAAGC [Eternabot (L2) Solution 80] (Eterna round: R97, puzzle: Exclusion 6)”, the “apparent KD of MS2 coat protein” value reads like this: (input ligand: FMN 200 uM) 348 nM; (input ligand: none) 105 nM.
As for “UACAUGAGGAUCACCCAUGUUUUGUCGUGUAUGGUAUUUAUCUAGGAUAUCAUUCUAUUUAUUUAUGAGAAGGAGAAUAUUAAU [JMF's solution 98] (Eterna round: R96, puzzle: Exclusion NG 3)”, the “apparent KD of MS2 coat protein” value turned out to be 33.4 nM (input ligand: FMN 200 uM), 23.5 nM under setting [1] and 29.7 nM (input ligand: none).
As for “CCAGGCUGUGUGAGGAUAUGCUGGUCCUUGGAUCAGCAGAAGGCACAUGAGGAUCACCCAUGUGAGGAGCUUGG [JL bmx4 3.28] (puzzle: Brourd's mod of Exclusion 4)”, under setting [3], the “apparent KD of MS2 coat protein” value stood at 19.9 nM.
“UUGAUUCAUGUAGGAUAUGCGUGGCGAAGCUAUGCAGAAGGACAUGAGGAUCACCCAUGUGCUUGCGUCCGCGUACGGAUGCUA [JL ENG1 1.23] (Eterna round: R96, puzzle: Exclusion NG 1)”: the “apparent KD of MS2 coat protein” value (input ligand: FMN 200 uM) worked out at 154 nM, the “apparent KD of MS2 coat protein” value under setting [1] came to 107 nM and the “apparent KD of MS2 coat protein” value (input ligand: none) came out at 165 nM.
For “CAGUACAGAGGAUAUACAUGAGGAUCACCCAUGUGUUUCAGCUAGGAGACUAGCGAAAGUAGAAGGCUGUACUU [salish99_ex3_r4_002] (Eterna round: R97, puzzle: Exclusion 3)”, the “apparent KD of MS2 coat protein” value reads like this: (input ligand: FMN 200 uM) 23 nM; (input ligand: none) 11.3 nM.
Taken in the same sequence, the figures for “UAUUAGCAAGCGAGAUCCUACAUGAGGAUCACCCAUGUGCUCGUCUUGUAAGGUACUGUGACGAAAGUCACGGUACC [Eli 91 v38] (Eterna round: R97, puzzle: Sensor, turn-off variant 1)” were 16.5 nM and 15.6 nM.
On to “AAAUACAAGUAAGGAUUCUACAUGAGGAUCACCCAUGUGCUCGUCUUAUAAAGUACUAUCACGAAAGUGAUAGUACA [Sensor 3, v1 - 38] (puzzle: Sensor v3, turn-off variant 1)”, for which the “apparent KD of MS2 coat protein” value worked out at 22 nM under setting [2], 190 nM under setting [3] and 26.2 nM under setting [4].
On to “UCUUUGUUUGUGAGGAUAUCGGUGGAAUGGAUUGUCGAGAAGGCACAUGAGGAUCACCCAUGUGUGGGACAGCA [JR_BMEx4_Sub026] (Eterna round: R97, puzzle: Brourd's mod of Exclusion 4)”, for which the “apparent KD of MS2 coat protein” value (input ligand: FMN 200 uM) was found to be 24.3 nM and the “apparent KD of MS2 coat protein” value (input ligand: none) came out at 22.3 nM.
For “AGUACUGACACGAAAGUGUUAGUACAAUAAGCUUGUGAAACAUGAGGAUCACCCAUGUCCUCAUAAGCUCGUCUUAU [salish99_TOv2_r3_017] (Eterna round: R96, puzzle: Sensor v3, turn-off variant 2)”, the “apparent KD of MS2 coat protein” value by setting is: (input ligand: FMN 200 uM) 15.9 nM; under setting [1], 469 nM; (input ligand: none) 17.9 nM.
As for “GACUAGGCAGGAUAUACAUGAGGAUCACCCAUGUGUCUGCGAUAGGCACGUGAUUACUGUAGAAGGGCCUUGAC [Exclusion 3 - mod of a parushev design] (puzzle: Exclusion 3)”, the “apparent KD of MS2 coat protein” value under setting [3] came out at 204 nM.
As to “CUCCGCGGAGGAUAUGCAGCCUUCGACAUGAGGAUCACCCAUGUACAAGAUCCCUUGUCGGCAGAAGGCCGGGAGA [Usena] (Eterna round: R97, puzzle: Exclusion 5)”, the “apparent KD of MS2 coat protein” value was found to be 114 nM (input ligand: FMN 200 uM) and 448 nM (input ligand: none).
Take “GGUACUAUCACCUGAGUGGUAGUGCUAUAAGCUUGUGAUACAUGAGGAUCACCCAUGUCCUCAUUUGCUCGUCUUAU [JL-sv3-2.29 JL mod] (puzzle: Sensor v3, turn-off variant 2)”: the “apparent KD of MS2 coat protein” value runs as follows: under setting [2], 602 nM; under setting [3], 610 nM; under setting [4], 824 nM.
Taken in the same sequence, the figures for “AGUAACCGUCACGAAAGUGAUGGUUACACAAGCAUAUGUACAUGAGGAUCACCCAUGUCCUCAACUGCUCGUCUUAU [Sensor 3 - 55] (puzzle: Sensor v3, turn-off variant 2)” were 296 nM, 385 nM and 424 nM.
In the case of “AGUCUGCUAGGAUAUACAUGAGGAUCACCCAUGUCUAUCAAAAGACUAUUAACCUGGUGUAGAAGGAGCUUGUA [Lasodiar] (puzzle: Exclusion 3)”, the “apparent KD of MS2 coat protein” value under setting [3] worked out at 10.7 nM.
In the case of “GAGGUGGGUUUUCAGAGUAACAUGAGGAUCACCCAUGUAGAAGUUGAAGGUAUCAAGCGAAUGGCUCGUCAAAUGUG [JR_SV3TOV1_Sub048] (puzzle: Sensor v3, turn-off variant 1)”, the “apparent KD of MS2 coat protein” value runs as follows: under setting [2], 135 nM; under setting [3], 171 nM; under setting [4], 233 nM.
On to “AGUUGACGAGAAGGAUAUCCGAACCUUUAAAGAGGAGAAGGUCUAUCAACAUGAGGAUCACCCAUGUACAUCGCUCGGGUGUCC [Arenis] (Eterna round: R96, puzzle: Exclusion NG 1)”, for which the “apparent KD of MS2 coat protein” value under setting [1] was 54.7 nM.
On to “GAAAACGGAGAGGAUAUUUGAGAUCAAAGCUCCAAAGAAGGCUCCACAUGAGGAUCACCCAUGUGGUCUUCAAG [Mat - Exclusion 6 - JL Mod - D14] (Eterna round: R97, puzzle: Exclusion 6)”, for which the “apparent KD of MS2 coat protein” value stood at 86.7 nM (input ligand: FMN 200 uM) and 17 nM (input ligand: none).
In the case of “GCAUGCUAUGUCAGGAUAUACCUCUGGAUACAUAGGUAGAAGGGACAUGAGGAUCACCCAUGUCCUCAUCAUGC [Fiskers BMX 4 - 25] (puzzle: Brourd's mod of Exclusion 4)”, the “apparent KD of MS2 coat protein” value under setting [3] came to 13.5 nM.
On the same count and under the same terms, next, “GCCGAUUAAGUCAGGAUAUACCUAUGGAUACAUAGGUAGAAGGGACAUGAGGAUCACCCAUGUUCCUCUACGGC [Fiskers BMX 4 - 16] (puzzle: Brourd's mod of Exclusion 4)”: 13.6 nM.
Turning to “GCUGGUCGAGGAUAUGCAUUCGUGCUUCGGCACGUAAGGUCACAUGAGGAUCACCCAUGUAGAAGGUGACCAGC [E2/6-B1] (Eterna round: R97, puzzle: Exclusion 2)”, the “apparent KD of MS2 coat protein” value (input ligand: FMN 200 uM) amounted to 23.9 nM and the “apparent KD of MS2 coat protein” value (input ligand: none) was determined as 17.8 nM.
Regarding “GGUCAGAUGGUAGGAUAUCCAUAUCGAGUGACCCUUUCAUAACAUGAGGAUCACCCAUGUUGGUGGGAGAAGGGCCGUACGGCG [salish99_ExNG02_R04_019] (Eterna round: R96, puzzle: Exclusion NG 2)”, the “apparent KD of MS2 coat protein” value worked out at 17.2 nM (input ligand: FMN 200 uM), 14.4 nM under setting [1] and 22 nM (input ligand: none).
Taken in the same sequence, the figures for “AGUACUAUCACGAAAGUGAUAGUACAAAUAAGCUUUAGAACAUGAGGAUCACCCAUGUCCUCUUAAGCUCGUCUUAU [Mat - Sensor v2 -ver2- JL mod - D56] (Eterna round: R96, puzzle: Sensor v2, turn-off variant 2)” were 14.8 nM, 143 nM and 17.1 nM.
As to “UUGUUGUAUGUAGGAUAUGCGUAUUAUUAUUAUGCAGAAGGACAUGAGGAUCACCCAUGUAUAUUAUUAUUAUAUGUUAUAUAU [Title] (Eterna round: R96, puzzle: Exclusion NG 1)”, under setting [1], the “apparent KD of MS2 coat protein” value worked out at 17.9 nM.
Consider “AGUACUUACUCGAUAGUGUUAGUACAAUAAGCUUGUGAAACAUGAGGAUCACCCAUGUCCUCAUUAGCUCGUCUUAU [salish99_TOv2_r3_1006] (puzzle: Sensor v3, turn-off variant 2)”, for which the “apparent KD of MS2 coat protein” value reads like this: under setting [2], 206 nM; under setting [3], 758 nM; under setting [4], 199 nM.
Regarding “ACAUGAGGAUCACCCAUGUUCGGCUGGUCCGUCUCGGCUGUCGAGGAUAUAGCUCGGUGUCCGCGCUAGAAGGCGGGAGCUGGC [Aenatbe mod 66] (Eterna round: R96, puzzle: Exclusion NG 3)”, the “apparent KD of MS2 coat protein” value was 106 nM (input ligand: FMN 200 uM), 47 nM under setting [1] and 90 nM (input ligand: none).
For the sequence “UCAAUACGGAAGGAUAUGCCGAAGCAUGCGCAGGCAGAAGGUCUGACAUGAGGAUCACCCAUGUUGGAGAUCAA [Eternabot (L2) Solution 21] (Eterna round: R97, puzzle: Exclusion 6)”, the “apparent KD of MS2 coat protein” value by setting is: (input ligand: FMN 200 uM) 82.1 nM; (input ligand: none) 19.1 nM.

Source of the values: the supplement of paper PMC9170038.
